T1: mouse FcγRIII extracellular domain, His-tagged GST fusion (mouse, UniProt P08508 31-215)
T1 construct: extracellular domain; also called Mouse III
T1 sequence (looked up): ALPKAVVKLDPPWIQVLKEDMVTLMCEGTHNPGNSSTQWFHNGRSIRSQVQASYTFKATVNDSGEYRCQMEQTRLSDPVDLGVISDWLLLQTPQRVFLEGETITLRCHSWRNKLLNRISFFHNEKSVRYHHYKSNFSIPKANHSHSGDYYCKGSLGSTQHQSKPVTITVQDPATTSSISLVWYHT

T2: mouse FcγRI extracellular domain, His-tagged GST fusion (mouse, UniProt P26151 25-297)
T2 construct: extracellular domain; also called Mouse I
T2 sequence (looked up): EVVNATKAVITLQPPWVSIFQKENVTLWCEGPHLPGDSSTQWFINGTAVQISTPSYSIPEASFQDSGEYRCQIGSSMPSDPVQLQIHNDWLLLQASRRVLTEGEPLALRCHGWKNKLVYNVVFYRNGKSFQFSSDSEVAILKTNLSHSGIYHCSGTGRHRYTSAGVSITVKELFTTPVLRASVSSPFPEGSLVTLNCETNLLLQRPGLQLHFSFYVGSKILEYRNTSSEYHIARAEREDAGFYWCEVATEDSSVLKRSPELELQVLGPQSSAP

T3: human FcγRIIb extracellular domain, His-tagged GST fusion (human, UniProt P31994 43-217)
T3 construct: extracellular domain; also called hFcgRIIb; Human IIb
T3 sequence (looked up): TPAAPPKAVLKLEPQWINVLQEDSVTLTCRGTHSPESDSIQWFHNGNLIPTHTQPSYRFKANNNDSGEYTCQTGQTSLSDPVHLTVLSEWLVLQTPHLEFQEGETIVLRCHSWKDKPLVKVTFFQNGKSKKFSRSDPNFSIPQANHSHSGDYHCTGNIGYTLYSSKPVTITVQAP

T4: human FcγRIIa extracellular domain, His-tagged GST fusion (human, UniProt P12318 34-217)
T4 construct: extracellular domain; also called hFcgRIIa; Human IIa
T4 sequence (looked up): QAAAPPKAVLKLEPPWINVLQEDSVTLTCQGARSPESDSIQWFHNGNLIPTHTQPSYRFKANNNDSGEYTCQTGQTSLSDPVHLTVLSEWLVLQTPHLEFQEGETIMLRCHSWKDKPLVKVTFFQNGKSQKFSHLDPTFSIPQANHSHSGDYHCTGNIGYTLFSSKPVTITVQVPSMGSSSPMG

T5: mouse FcγRII extracellular domain, His-tagged GST fusion (mouse, UniProt P08101 30-210)
T5 construct: extracellular domain; also called Mouse II
T5 sequence (looked up): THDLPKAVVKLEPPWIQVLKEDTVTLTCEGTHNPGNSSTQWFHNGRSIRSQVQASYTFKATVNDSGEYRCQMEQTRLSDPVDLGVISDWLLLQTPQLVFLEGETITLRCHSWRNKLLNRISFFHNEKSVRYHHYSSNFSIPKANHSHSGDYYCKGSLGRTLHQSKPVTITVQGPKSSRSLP


How the values were obtained:
[1] = target: human BR3 expressed on cells (human, UniProt Q96RJ3 1-184); assay: cell-based or functional assay
[2] = target: T1, mouse FcγRIII extracellular domain, …; assay: ELISA, captured FcgR-GST; EC50herceptin/EC50sample
[3] = target: T6, human FcγRI extracellular domain, His-tagged GST fusion (human, UniProt P12314 16-292); assay: ELISA, captured FcgR-GST; EC50herceptin/EC50sample
T6 construct: extracellular domain; also called hFcgRI; Human I

[4] = target: T2, mouse FcγRI extracellular domain, …; assay: ELISA, captured FcgR-GST; EC50herceptin/EC50sample
[5] = target: T3, human FcγRIIb extracellular domain, …; assay: ELISA, captured FcgR-GST; EC50herceptin/EC50sample
[6] = target: T4, human FcγRIIa extracellular domain, …; assay: ELISA, captured FcgR-GST; EC50herceptin/EC50sample
[7] = target: T5, mouse FcγRII extracellular domain, …; assay: ELISA, captured FcgR-GST; EC50herceptin/EC50sample
cynomolgus FcRn [8] = target: T7, cynomolgus FcRn (cynomolgus monkey, UniProt Q8SPV9 24-297; Q8SPW0 21-119, limits assumed); assay: SPR, FcRn on chip, equilibrium, pH 6.0 (KDb)
T7 construct: construct not described; also called cynoFcRn; cyno FcRn

human FcRn [9] = target: T8, human FcRn (human, UniProt P55899 24-297; P61769 21-119, limits assumed); assay: SPR, FcRn on chip, equilibrium, pH 6.0 (KDb)
T8 construct: construct not described; also called huFcRn

[10] = target: T4, human FcγRIIa extracellular domain, …; assay: ELISA, receptor-His-GST captured by anti-GST, IgG complexed with anti-kappa F(ab')2
[11] = target: T6, human FcγRI extracellular domain, …; assay: ELISA, captured FcgR-GST; A450 ratio to 9.1RF
[12] = target: T3, human FcγRIIb extracellular domain, …; assay: ELISA, captured FcgR-GST; A450 ratio to 9.1RF
[13] = target: T4, human FcγRIIa extracellular domain, …; assay: ELISA, captured FcgR-GST; A450 ratio to 9.1RF
cynomolgus FcRn [14] = target: T7, cynomolgus FcRn; assay: SPR, FcRn on chip, kinetic, pH 6
human FcRn [15] = target: T8, human FcRn; assay: SPR, FcRn on chip, kinetic, pH 6
cynomolgus FcRn [16] = target: T7, cynomolgus FcRn; assay: SPR, FcRn on chip, kinetic, pH 6.0 (KDa)
human FcRn [17] = target: T8, human FcRn; assay: SPR, FcRn on chip, kinetic, pH 6.0 (KDa)
[18] = target: T6, human FcγRI extracellular domain, …; assay: ELISA, receptor-His-GST captured by anti-GST, uncomplexed IgG

Row | ADCC activity relative to 9.1wt (relative EC50 values) [1] [fold] | ADCC on BJAB cells (LDH release), EC50 [1] [nM] | fold improvement in binding vs Herceptin [2] [fold] | fold improvement in binding vs Herceptin [3] [fold] | fold improvement in binding vs Herceptin [4] [fold] | fold improvement in binding vs Herceptin [5] [fold] | fold improvement in binding vs Herceptin [6] [fold] | fold improvement in binding vs Herceptin [7] [fold] | Kd (cynomolgus FcRn [8]) [nM] | Kd (human FcRn [9]) [nM] | EC50 (read off the curve) [10] [µg/mL] | binding relative to 9.1RF [11] [ratio] | binding relative to 9.1RF [12] [ratio] | binding relative to 9.1RF [13] [ratio] | koff (cynomolgus FcRn [14]) [s⁻¹] | kon (cynomolgus FcRn [14]) [M⁻¹ s⁻¹] | koff (human FcRn [15]) [s⁻¹] | kon (human FcRn [15]) [M⁻¹ s⁻¹] | Kd (cynomolgus FcRn [16]) [nM] | Kd (human FcRn [17]) [nM] | further results | Binder
1 | 2.8 | < 1 | 0.6 | 0.7 | 2.5 | 0.4 | 0.2 | 0.4 | – | – | – | – | – | – | – | – | – | – | – | – | – | 9.1RF S298A/E333A/K334A IgG (antibody, Fc variant of 9.1RF, transient CHO expression; copies: 2 + 2) light: DIQMTQSPSSLSASVGDRVTITCKSSQSLLYSSNQNNYLAWYQQKPGKAPKLLIYWASTRESGVPSRFSGSGSGTDFTLTISSLQPEDFATYYCQQYYTYPYTFGQGTKVEIKRTVAAPSVFIFPPSDEQLKSGTASVVCLLNNFYPREAKVQWKVDNALQSGNSQESVTEQDSKDSTYSLSSTLTLSKADYEKHKVYACEVTHQGLSSPVTKSFNRGEC heavy: EVQLVESGGGLVQPGGSLRLSCAASGFTVTAYYMSWVRQAPGKGLEWVGFIRDKANGYTTEYNPSVKGRFTISRDTSKNTFYLQMNSLRAEDTAVYYCAQVRRALDYWGQGTLVTVSSASTKGPSVFPLAPSSKSTSGGTAALGCLVKDYFPEPVTVSWNSGALTSGVHTFPAVLQSSGLYSLSSVVTVPSSSLGTQTYICNVNHKPSNTKVDKKVEPKSCDKTHTCPPCPAPELLGGPSVFLFPPKPKDTLMISRTPEVTCVVVDVSHEDPEVKFNWYVDGVEVHNAKTKPREEQYNATYRVVSVLTVLHQDWLNGKEYKCKVSNKALPAPIAATISKAKGQPREPQVYTLPPSREEMTKNQVSLTCLVKGFYPSDIAVEWESNGQPENNYKTTPPVLDSDGSFFLYSKLTVDKSRWQQGNVFSCSVMHEALHNHYTQKSLSLSPG
2 | – | – | – | – | – | – | – | – | 62.7 | 66.6 | ~2 | 0.97 | 0.45 | 0.66 | 0.0962 | 1.7e+06 | 0.0467 | 884000 | 56.5 | 52.8 | EC50 (read off the curve) [18]: ~0.006 µg/mL | 9.1RF N434A IgG (antibody, produced in CHO cells; copies: 2 + 2) light: DIQMTQSPSSLSASVGDRVTITCKSSQSLLYSSNQNNYLAWYQQKPGKAPKLLIYWASTRESGVPSRFSGSGSGTDFTLTISSLQPEDFATYYCQQYYTYPYTFGQGTKVEIKRTVAAPSVFIFPPSDEQLKSGTASVVCLLNNFYPREAKVQWKVDNALQSGNSQESVTEQDSKDSTYSLSSTLTLSKADYEKHKVYACEVTHQGLSSPVTKSFNRGEC heavy: not shown
3 | 3 | < 1 | 1.2 | 0.6 | 1.9 | 0.7 | 0.2 | 1.3 | – | – | – | – | – | – | – | – | – | – | – | – | – | 9.1RF S298A/K326A/E333A/K334A IgG (antibody, Fc variant of 9.1RF, transient CHO expression; copies: 2 + 2) light: DIQMTQSPSSLSASVGDRVTITCKSSQSLLYSSNQNNYLAWYQQKPGKAPKLLIYWASTRESGVPSRFSGSGSGTDFTLTISSLQPEDFATYYCQQYYTYPYTFGQGTKVEIKRTVAAPSVFIFPPSDEQLKSGTASVVCLLNNFYPREAKVQWKVDNALQSGNSQESVTEQDSKDSTYSLSSTLTLSKADYEKHKVYACEVTHQGLSSPVTKSFNRGEC heavy: EVQLVESGGGLVQPGGSLRLSCAASGFTVTAYYMSWVRQAPGKGLEWVGFIRDKANGYTTEYNPSVKGRFTISRDTSKNTFYLQMNSLRAEDTAVYYCAQVRRALDYWGQGTLVTVSSASTKGPSVFPLAPSSKSTSGGTAALGCLVKDYFPEPVTVSWNSGALTSGVHTFPAVLQSSGLYSLSSVVTVPSSSLGTQTYICNVNHKPSNTKVDKKVEPKSCDKTHTCPPCPAPELLGGPSVFLFPPKPKDTLMISRTPEVTCVVVDVSHEDPEVKFNWYVDGVEVHNAKTKPREEQYNATYRVVSVLTVLHQDWLNGKEYKCKVSNAALPAPIAATISKAKGQPREPQVYTLPPSREEMTKNQVSLTCLVKGFYPSDIAVEWESNGQPENNYKTTPPVLDSDGSFFLYSKLTVDKSRWQQGNVFSCSVMHEALHNHYTQKSLSLSPG
4 | – | – | – | – | – | – | – | – | 5.1 | 5.8 | ~2 | 1 | 0.4 | 0.64 | 0.0144 | 4.74e+06 | 0.0102 | 4.31e+06 | 3.03 | 2.37 | EC50 (read off the curve) [18]: ~0.006 µg/mL | 9.1RF N434W IgG (antibody, produced in CHO cells; copies: 2 + 2) light: DIQMTQSPSSLSASVGDRVTITCKSSQSLLYSSNQNNYLAWYQQKPGKAPKLLIYWASTRESGVPSRFSGSGSGTDFTLTISSLQPEDFATYYCQQYYTYPYTFGQGTKVEIKRTVAAPSVFIFPPSDEQLKSGTASVVCLLNNFYPREAKVQWKVDNALQSGNSQESVTEQDSKDSTYSLSSTLTLSKADYEKHKVYACEVTHQGLSSPVTKSFNRGEC heavy: not shown
